Like-named read-outs stand apart in the source and are kept apart here.
T1: mouse NKp46 (mouse, UniProt Q8C567 17-325)
T1 construct: whole, on cells
T1 sequence (looked up): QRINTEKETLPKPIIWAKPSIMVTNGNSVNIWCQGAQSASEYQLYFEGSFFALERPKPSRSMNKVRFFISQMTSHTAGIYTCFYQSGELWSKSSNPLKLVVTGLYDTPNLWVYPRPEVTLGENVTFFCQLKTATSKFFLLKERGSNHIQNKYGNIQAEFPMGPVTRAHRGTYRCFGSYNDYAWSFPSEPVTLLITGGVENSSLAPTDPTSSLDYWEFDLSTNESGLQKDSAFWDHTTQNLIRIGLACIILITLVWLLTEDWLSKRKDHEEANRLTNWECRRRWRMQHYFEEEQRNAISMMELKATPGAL


Legend:
[1] = target: T2, cynomolgus NKp46 (cynomolgus monkey, UniProt Q95JB9 22-306); assay: flow cytometry, HEK293F cells transfected with cyno NKp46
T2 construct: also called cyno NKp46; cynomolgus monkey NKp46
Method: (§1) Binding of NKp46-binding polypeptides formatted as VHH-Fc fusion proteins was assessed by flow cytometry. An IgG1-Fc lacking a hinge, or a homodimeric Fc (FIG. 1I-1J) was used (the Fc lacking a hinge is annotated as Fc*). HEK293F cells were transiently transfected with a plasmid encoding full-length human NKp46, cynomolgus NKp46, or mouse NKp46, followed by an IRES and GFP. Transfected cells expressing NKp46 and GFP were used to measure binding of the polypeptides. The transfected cells were plated in a 96-well plate at 30,000 cells per well in FACS buffer (PBS, 1% BSA, 0.1% NaN₃, pH 7.4). Untransfected HEK293F cells were used as a NKp46-negative control and plated at 30,000 cells per well in a separate plate. Test polypeptides were then diluted to two times the final concentration of 1000 nM, and a 3-, 4-, or 5-fold, serial dilution was made. A final column was left with only FACS buffer as a secondary-only control. Test article dilutions were added to an equal volume of cells, and assay plates were incubated for 30 minutes at 4° C. After washing twice with 150 μL. of FACS buffer per well, the cells were resuspended in FACS buffer with α-hFc-647 secondary diluted 1:1000-2000. Assay plates were then left to incubate at 4° C. for 20-30 minutes. After one additional wash with 150 μL of FACS buffer, bound antibody was detected by flow cytometry. Flow cytometric detection was performed on an Intellicyt iQue Plus or Accuri iQue. NKp46 transfected cells were gated on as GFP positive, and polypeptide binding was measured as median fluorescence at 647 nm.

[2] = target: T1, mouse NKp46; assay: flow cytometry, HEK293F cells transfected with mouse NKp46
Method: as §1

[3] = target: T3, human NKp46 (human, UniProt O76036 22-304); assay: flow cytometry, HEK293F cells transfected with human NKp46
T3 construct: also called CD335; NCR1
Method: as §1

[4] = target: T3, human NKp46; assay: as above; remark: listed apart in the source
Method: as §1

[5] = target: T1, mouse NKp46; assay: flow cytometry, HEK293F cells transfected with mouse NKp46; remark: listed apart in the source
Method: as §1

[6] = target: T2, cynomolgus NKp46; assay: flow cytometry, HEK293F cells transfected with cyno NKp46; remark: listed apart in the source
Method: as §1

T3 sequence (O76036 22-304 Q82K): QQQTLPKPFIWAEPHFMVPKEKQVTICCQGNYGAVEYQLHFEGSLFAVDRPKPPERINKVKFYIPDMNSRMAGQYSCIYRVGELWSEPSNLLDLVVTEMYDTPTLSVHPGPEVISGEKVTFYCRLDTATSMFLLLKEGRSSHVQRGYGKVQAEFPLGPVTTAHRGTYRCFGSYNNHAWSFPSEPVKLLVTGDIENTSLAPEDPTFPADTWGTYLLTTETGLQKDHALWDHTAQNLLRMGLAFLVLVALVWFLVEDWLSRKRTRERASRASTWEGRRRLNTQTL
T2 sequence (Q95JB9 22-306 limits assumed): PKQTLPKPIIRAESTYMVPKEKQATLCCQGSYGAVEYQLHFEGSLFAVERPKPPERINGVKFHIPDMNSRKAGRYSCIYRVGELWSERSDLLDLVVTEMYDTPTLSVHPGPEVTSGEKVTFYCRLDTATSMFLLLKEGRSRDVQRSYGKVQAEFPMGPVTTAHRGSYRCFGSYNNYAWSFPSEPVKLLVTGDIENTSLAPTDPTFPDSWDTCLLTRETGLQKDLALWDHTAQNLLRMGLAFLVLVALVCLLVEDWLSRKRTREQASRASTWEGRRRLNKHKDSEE

Bmax (MFI) [1] [MFI] | Kd [1] [nM] | Bmax (MFI) [2] [MFI] | Kd [2] [nM] | Bmax (MFI) [3] [MFI] | Kd [3] [nM] | Bmax (MFI) [4] [MFI] | Kd [4] [nM] | Bmax (MFI) [5] [MFI] | Kd [5] [nM] | Bmax (MFI) [6] [MFI] | Kd [6] [nM] | Binder
53500 | 0.526 | 1.12e+06 | 0.696 | 930000 | 0.203 |  |  |  |  |  |  | NKp46-hz5D7v8-Fc* (Fc fusion, VHH-Fc fusion with an IgG1 Fc lacking a hinge (Fc*); also called NKp46-bz5D7v8-Fc*) EVQLVESGGGEVQPGGSLRLSCAASGRTFASAAMGWFRQAPGKEREFVAAISRSVGDTYYADSVKGRFTISRDNAKNTVYLQMSSLRAEDTAVYYCAAVVPTYGNNIYVHSAAYNYWGQGTLVTVKPGGGGPSVFLFPPKPKDTLMISRTPEVTCVVVDVSHEDPEVKFNWYVDGVEVHNAKTKPREEQYNSTYRVVSVLTVLHQDWLNGKEYKCKVSNKALPAPIEKTISKAKGQPREPQVYTLPPSRDELTKNQVSLTCLVKGFYPSDIAVEWESNGQPENNYKTTPPVLDSDGSFFLYSKLTVDKSRWQQGNVFSCSVMHEALHNHYTQKSLSLSPG
61900 | 0.655 | 1.22e+06 | 0.941 | 1.05e+06 | 0.392 |  |  |  |  |  |  | NKp46-hz5D7v9-Fc* (Fc fusion, VHH-Fc fusion with an IgG1 Fc lacking a hinge (Fc*)) EVQLVESGGGEVQPGGSLRLSCAASGRTFASAAMGWFRQAPGKEREFVAAISRSVDDTYYADSVKGRFTISRDNAKNTVYLQMSSLRAEDTAVYYCAAVVPTYGNNIYVHSAAYNYWGQGTLVTVKPGGGGPSVFLFPPKPKDTLMISRTPEVTCVVVDVSHEDPEVKFNWYVDGVEVHNAKTKPREEQYNSTYRVVSVLTVLHQDWLNGKEYKCKVSNKALPAPIEKTISKAKGQPREPQVYTLPPSRDELTKNQVSLTCLVKGFYPSDIAVEWESNGQPENNYKTTPPVLDSDGSFFLYSKLTVDKSRWQQGNVFSCSVMHEALHNHYTQKSLSLSPG
67600 | 0.691 | 1.17e+06 | 0.468 | 790000 | 0.139 |  |  |  |  |  |  | NKp46-hz5D7v1-Fc* (Fc fusion, VHH-Fc fusion with an IgG1 Fc lacking a hinge (Fc*)) EVQLVESGGGEVQPGGSLRLSCAASGRTFASAAMGWFRQAPGKGREFVAAISRSDDTYYAESVKGRFTISRDNAKNTLYLQMSSLRAEDTAVYYCAAVVPTYGNNIYVHSAAYNYWGQGTLVTVKPGGGGPSVFLFPPKPKDTLMISRTPEVTCVVVDVSHEDPEVKFNWYVDGVEVHNAKTKPREEQYNSTYRVVSVLTVLHQDWLNGKEYKCKVSNKALPAPIEKTISKAKGQPREPQVYTLPPSRDELTKNQVSLTCLVKGFYPSDIAVEWESNGQPENNYKTTPPVLDSDGSFFLYSKLTVDKSRWQQGNVFSCSVMHEALHNHYTQKSLSLSPG
 |  |  |  |  |  | 150000 | 0.234 | 38100 | 0.604 | 18800 | 0.748 | NKp46-hz5D7v13-Fc* (Fc fusion, VHH-Fc fusion with an IgG1 Fc lacking a hinge (Fc*)) EVQLVESGGGEVQPGGSLRLSCAASGRTFASAAMGWFRQAPGKEREFVAAISRSDDTYYAESVKGRFTISRDNAKNTVYLQMSSLRAEDTAVYYCAAVVPTYGNTIYVHSAAYNYWGQGTLVTVKPGGGGPSVFLFPPKPKDTLMISRTPEVTCVVVDVSHEDPEVKFNWYVDGVEVHNAKTKPREEQYNSTYRVVSVLTVLHQDWLNGKEYKCKVSNKALPAPIEKTISKAKGQPREPQVYTLPPSRDELTKNQVSLTCLVKGFYPSDIAVEWESNGQPENNYKTTPPVLDSDGSFFLYSKLTVDKSRWQQGNVFSCSVMHEALHNHYTQKSLSLSPG
 | 0.446 |  | 0.887 |  | 0.189 |  |  |  |  |  |  | NKp46-hz5D7v4-Fc* (Fc fusion, VHH-Fc fusion with an IgG1 Fc lacking a hinge (Fc*)) EVQLVESGGGEVQPGGSLRLSCAASGRTFASAAMGWFRQAPGKEREFVAAISRSDDTYYADSVKGRFTISRDNAKNTVYLQMSSLRAEDTAVYYCAAVVPTYGNNIYVHSAAYNYWGQGTLVTVKPGGGGPSVFLFPPKPKDTLMISRTPEVTCVVVDVSHEDPEVKFNWYVDGVEVHNAKTKPREEQYNSTYRVVSVLTVLHQDWLNGKEYKCKVSNKALPAPIEKTISKAKGQPREPQVYTLPPSRDELTKNQVSLTCLVKGFYPSDIAVEWESNGQPENNYKTTPPVLDSDGSFFLYSKLTVDKSRWQQGNVFSCSVMHEALHNHYTQKSLSLSPG
64600 | 0.703 | 1.17e+06 | 0.613 | 866000 | 0.23 |  |  |  |  |  |  | NKp46-hz5D7v7-Fc* (Fc fusion, VHH-Fc fusion with an IgG1 Fc lacking a hinge (Fc*); also called NKp46-bz5D7v7-Fc*) EVQLVESGGGEVQPGGSLRLSCAASGRTFASAAMGWFRQAPGKEREFVAAISRSGDTYYADSVKGRFTISRDNAKNTVYLQMSSLRAEDTAVYYCAAVVPTYGNNIYVHSAAYNYWGQGTLVTVKPGGGGPSVFLFPPKPKDTLMISRTPEVTCVVVDVSHEDPEVKFNWYVDGVEVHNAKTKPREEQYNSTYRVVSVLTVLHQDWLNGKEYKCKVSNKALPAPIEKTISKAKGQPREPQVYTLPPSRDELTKNQVSLTCLVKGFYPSDIAVEWESNGQPENNYKTTPPVLDSDGSFFLYSKLTVDKSRWQQGNVFSCSVMHEALHNHYTQKSLSLSPG
 |  |  |  |  |  | 149000 | 0.14 | 49300 | 0.513 | 17900 | 0.455 | NKp46-hz5D7v12-Fc* (Fc fusion, VHH-Fc fusion with an IgG1 Fc lacking a hinge (Fc*)) EVQLVESGGGEVQPGGSLRLSCAASGRTFASAAMGWFRQAPGKEREFVAAISRSDDTYYAESVKGRFTISRDNAKNTVYLQMSSLRAEDTAVYYCAAVVPTYGSNIYVHSAAYNYWGQGTLVTVKPGGGGPSVFLFPPKPKDTLMISRTPEVTCVVVDVSHEDPEVKFNWYVDGVEVHNAKTKPREEQYNSTYRVVSVLTVLHQDWLNGKEYKCKVSNKALPAPIEKTISKAKGQPREPQVYTLPPSRDELTKNQVSLTCLVKGFYPSDIAVEWESNGQPENNYKTTPPVLDSDGSFFLYSKLTVDKSRWQQGNVFSCSVMHEALHNHYTQKSLSLSPG
51500 | 0.902 | 1.21e+06 | 0.729 | 938000 | 0.762 |  |  |  |  |  |  | NKp46-hz5D7v2-Fc* (Fc fusion, VHH-Fc fusion with an IgG1 Fc lacking a hinge (Fc*); also called NKp46-bz5D7v2-Fc*) EVQLVESGGGEVQPGGSLRLSCAASGRTFASAAMGWFRQAPGKEREFVAAISRSDDTYYAESVKGRFTISRDNAKNTLYLQMSSLRAEDTAVYYCAAVVPTYGNNIYVHSAAYNYWGQGTLVTVKPGGGGPSVFLFPPKPKDTLMISRTPEVTCVVVDVSHEDPEVKFNWYVDGVEVHNAKTKPREEQYNSTYRVVSVLTVLHQDWLNGKEYKCKVSNKALPAPIEKTISKAKGQPREPQVYTLPPSRDELTKNQVSLTCLVKGFYPSDIAVEWESNGQPENNYKTTPPVLDSDGSFFLYSKLTVDKSRWQQGNVFSCSVMHEALHNHYTQKSLSLSPG
58600 | 0.538 | 1.07e+06 | 0.487 | 1.04e+06 | 0.172 |  |  |  |  |  |  | NKp46-5D7-Fc* (Fc fusion, VHH-Fc fusion with an IgG1 Fc lacking a hinge (Fc*); also called 5D7 VHH) QVTLRESGASLSLTCAASGRTFASAAMGWFRQAPGEEREFVAAISRSDDTYYADSVKGRFTISRDNAKNTVYLQMNSLKSEDTAVYYCAAVVPTYGNNIYVHSAAYNYWGQGTQVTVKPGGGGGPSVFLFPPKPKDTLMISRTPEVTCVVVDVSHEDPEVKFNWYVDGVEVHNAKTKPREEQYNSTYRVVSVLTVLHQDWLNGKEYKCKVSNKALPAPIEKTISKAKGQPREPQVYTLPPSRDELTKNQVSLTCLVKGFYPSDIAVEWESNGQPENNYKTTPPVLDSDGSFFLYSKLTVDKSRWQQGNVFSCSVMHEALHNHYTQKSLSLSPG
 | 1.06 |  | 0.82 |  | 0.269 |  |  |  |  |  |  | NKp46-hz5D7v10-Fc* (Fc fusion, VHH-Fc fusion with an IgG1 Fc lacking a hinge (Fc*)) EVQLVESGGSLRLSCAASGRTFASAAMGWFRQAPGKEREFVAAISRSDDTYYADSVKGRFTISRDNAKNTVYLQMSSLRAEDTAVYYCAAVVPTYGNNIYVHSAAYNYWGQGTLVTVKPGGGGPSVFLFPPKPKDTLMISRTPEVTCVVVDVSHEDPEVKFNWYVDGVEVHNAKTKPREEQYNSTYRVVSVLTVLHQDWLNGKEYKCKVSNKALPAPIEKTISKAKGQPREPQVYTLPPSRDELTKNQVSLTCLVKGFYPSDIAVEWESNGQPENNYKTTPPVLDSDGSFFLYSKLTVDKSRWQQGNVFSCSVMHEALHNHYTQKSLSLSPG
